Data published in patent US20100298542A1 (Chugai, published 2010).

Legend:
[1] = biological target: T1, soluble human FcRn (complex of FcRn extracellular domain and β2-microglobulin) (human, UniProt P55899 24-290; P16213 21-119); assay: SPR (Biacore 3000), antibody captured on Protein L or anti-human kappa antibody, human FcRn as analyte, pH 6.0, steady state affinity
T1 construct: The stated ranges are those of the expressed constructs and contain the signal regions; Expressed in HEK293H cells, purified on IgG Sepharose and HiTrap Q; also called hFcRn
Experimental: (§1) The binding to human FcRn was assessed using Biacore 3000. […] Human FcRn was then injected and the binding of the human FcRn to antibody was assessed. The affinity was computed using BIAevaluation Software. The obtained sensorgram was used to calculate the amount of hFcRn bound to the antibody immediately before the end of human FcRn injection. The affinity of the antibody for human FcRn was calculated by fitting with the steady state affinity method.

[2] = biological target: T1, soluble human FcRn (complex of FcRn …); assay: SPR (Biacore 3000), human FcRn, pH 6.0, steady state affinity
Experimental: as §1

[3] = biological target: T1, soluble human FcRn (complex of FcRn …); assay: SPR (Biacore 3000), method of Example 6: captured antibody, human FcRn as analyte, pH 6.0, steady state affinity
Experimental: as §1

Binder	Kd [1] [nM]	binding as a multiple of that of WT-IgG1 [2]	Kd [3] [nM]
WT-M14ΔGK (humanized PM-1 variable region, M14ΔGK constant region) (antibody, copies: 2 + 2) heavy: QVQLQESGPGLVRPSQTLSLTCTVSGYSITSDHAWSWVRQPPGRGLEWIGYISYSGITTYNPSLKSRVTMLRDTSKNQFSLRLSSVTAADTAVYYCARSLARTTAMDYWGQGSLVTVSSASTKGPSVFPLAPSSKSTSGGTAALGCLVKDYFPEPVTVSWNSGALTSGVHTFPAVLQSSGLYSLSSVVTVPSSNFGTQTYTCNVDHKPSNTKVDKTVERKSCVECPPCPAPPVAGPSVFLFPPKPKDTLMISRTPEVTCVVVDVSHEDPEVQFNWYVDGVEVHNAKTKPREEQFNSTFRVVSVLTVVHQDWLNGKEYKCKVSNKGLPSSIEKTISKAKGQPREPQVYTLPPSREEMTKNQVSLTCLVKGFYPSDIAVEWESNGQPENNYKTTPPVLDSDGSFFLYSKLTVDKSRWQQGNVFSCSVMHEALHNHYTQKSLSLSP light: DIQMTQSPSSLSASVGDSVTITCQASQDISSYLNWYQQKPGKAPELLIYYGSELHSGVPSRFSGSGSGTDFTFTISSLEAEDAATYYCQQGNSLPYTFGQGTKVEIE	1850	–	–
WT-M58 (humanized PM-1 variable region, M58 constant region) (antibody, copies: 2 + 2) heavy: QVQLQESGPGLVRPSQTLSLTCTVSGYSITSDHAWSWVRQPPGRGLEWIGYISYSGITTYNPSLKSRVTMLRDTSKNQFSLRLSSVTAADTAVYYCARSLARTTAMDYWGQGSLVTVSSASTKGPSVFPLAPSSKSTSGGTAALGCLVKDYFPEPVTVSWNSGALTSGVHTFPAVLQSSGLYSLSSVVTVPSSNFGTQTYTCNVDHKPSNTKVDKTVERKSCVECPPCPAPPVAGPSVFLFPPKPKDTLMISRTPEVTCVVVDVSQEDPEVQFNWYVDGVEVHNAKTKPREEQFNSTFRVVSVLTVVHQDWLNGKEYKCKVSNKGLPAPIEKTISKTKGQPREPQVYTLPPSQEEMTKNQVSLTCLVKGFYPSDIAVEWESNGQPENNYKTTPPMLDSDGSFFLYSKLTVDKSRWQEGNVFSCSVMHEALHNHYTQKSLSLSP light: DIQMTQSPSSLSASVGDSVTITCQASQDISSYLNWYQQKPGKAPELLIYYGSELHSGVPSRFSGSGSGTDFTFTISSLEAEDAATYYCQQGNSLPYTFGQGTKVEIE	1170	~1.4 times that of WT-IgG1	1030

Now those with a lower Kd [1], led by results:

Kd [1] [nM]	binding as a multiple of that of WT-IgG1 [2]	Kd [3] [nM]	Binder
590	~2.7 times that of WT-IgG1	–	WT-M44 (humanized PM-1 antibody, IgG1 constant region with alanine at position 434, EU numbering) (antibody, copies: 2 + 2) heavy: not shown light: DIQMTQSPSSLSASVGDSVTITCQASQDISSYLNWYQQKPGKAPELLIYYGSELHSGVPSRFSGSGSGTDFTFTISSLEAEDAATYYCQQGNSLPYTFGQGTKVEIE
420	~3.8 times that of WT-IgG1	–	WT-M73 (humanized PM-1 variable region, M73 constant region) (antibody, copies: 2 + 2) heavy: QVQLQESGPGLVRPSQTLSLTCTVSGYSITSDHAWSWVRQPPGRGLEWIGYISYSGITTYNPSLKSRVTMLRDTSKNQFSLRLSSVTAADTAVYYCARSLARTTAMDYWGQGSLVTVSSASTKGPSVFPLAPSSKSTSGGTAALGCLVKDYFPEPVTVSWNSGALTSGVHTFPAVLQSSGLYSLSSVVTVPSSNFGTQTYTCNVDHKPSNTKVDKTVERKSCVECPPCPAPPVAGPSVFLFPPKPKDTLMISRTPEVTCVVVDVSQEDPEVQFNWYVDGVEVHNAKTKPREEQFNSTFRVVSVLTVVHQDWLNGKEYKCKVSNKGLPAPIEKTISKTKGQPREPQVYTLPPSQEEMTKNQVSLTCLVKGFYPSDIAVEWESNGQPENNYKTTPPMLDSDGSFFLYSKLTVDKSRWQEGNVFSCSVMHEALHAHYTQKSLSLSP light: DIQMTQSPSSLSASVGDSVTITCQASQDISSYLNWYQQKPGKAPELLIYYGSELHSGVPSRFSGSGSGTDFTFTISSLEAEDAATYYCQQGNSLPYTFGQGTKVEIE
